{
  "source": "patent US20260042849",
  "key": {"[1]": {"test_system": "internally quenched peptide probe with CM 7050 (PRGL, SEQ ID NO: 105)"}, "[2]": {"test_system": "internally quenched peptide probe with CM PWGLRS (SEQ ID NO: 181)"}, "[3]": {"test_system": "internally quenched peptide probe with CM 7049 (PFGL, SEQ ID NO: 104)"}, "[4]": {"test_system": "internally quenched peptide probe with CM 7055 (PHGL, SEQ ID NO: 10)"}, "[5]": {"test_system": "internally quenched peptide probe with CM 7053 (PQGL, SEQ ID NO: 9)"}, "[6]": {"test_system": "internally quenched peptide probe with CM PMGLKS (SEQ ID NO: 5)"}, "[7]": {"test_system": "internally quenched peptide probe with CM 7052 (PLGL, SEQ ID NO: 107)"}, "[8]": {"test_system": "internally quenched peptide probe with CM 7054 (PKGL, SEQ ID NO: 108)"}, "[9]": {"test_system": "internally quenched peptide probe with CM PMGLK (SEQ ID NO: 64)"}, "[10]": {"test_system": "internally quenched peptide probe with CM 7056 (PEGL, SEQ ID NO: 11)"}, "[11]": {"test_system": "internally quenched peptide probe with CM APMGLKH (SEQ ID NO: 7)"}, "[12]": {"test_system": "internally quenched peptide probe with CM 7051 (PMGL, SEQ ID NO: 106)"}, "[13]": {"test_system": "internally quenched peptide probe with CM 7047 (PYGL, SEQ ID NO: 103)"}, "[14]": {"test_system": "internally quenched peptide probe with CM RSPWGL (SEQ ID NO: 182)"}, "[15]": {"test_system": "internally quenched peptide probe with CM 7041 (PWGL, SEQ ID NO: 100)"}},
  "data": [
    {"substance": "human recombinant MMP9 (R&D Systems, catalog No: 911-MP)", "values": [
      {"measurement": "stated: cleaved (kcat/Km, M-1s-1, bar on a log axis)", "setting": "[1]", "result": "PRGL, MMP9 bar ends between 1x10^4 and 1x10^5"},
      {"measurement": "Probe Cleavage (kcat/KM)", "setting": "[2]", "result": 150000, "unit": "M⁻¹ s⁻¹"},
      {"measurement": "Probe Cleavage (pM/s)", "setting": "[2]", "result": 3830, "unit": "pM/s"},
      {"measurement": "kcat/KM (M^-1 s^-1)", "setting": "[3]", "result": "greater than 5×10^2 M^-1 s^-1"},
      {"measurement": "stated: cleaved (kcat/Km, M-1s-1, bar on a log axis)", "setting": "[3]", "result": "PFGL, MMP9 bar ends at about the 1x10^4 tick"},
      {"measurement": "stated: cleaved (kcat/Km, M-1s-1, bar on a log axis)", "setting": "[4]", "result": "PHGL, MMP9 bar ends between 1x10^3 and 1x10^4"},
      {"measurement": "stated: cleaved (kcat/Km, M-1s-1, bar on a log axis)", "setting": "[5]", "result": "PQGL, MMP9 bar ends between 1x10^3 and 1x10^4"},
      {"measurement": "Probe Cleavage (kcat/KM)", "setting": "[6]", "result": "3.1e+06", "unit": "M⁻¹ s⁻¹"},
      {"measurement": "Probe Cleavage (pM/s)", "setting": "[6]", "result": 133000, "unit": "pM/s"},
      {"measurement": "stated: cleaved (kcat/Km, M-1s-1, bar on a log axis)", "setting": "[7]", "result": "PLGL, MMP9 bar ends between 1x10^4 and 1x10^5"},
      {"measurement": "stated: cleaved (kcat/Km, M-1s-1, bar on a log axis)", "setting": "[8]", "result": "PKGL, MMP9 bar ends just above the 1x10^4 tick"},
      {"measurement": "Probe Cleavage (kcat/KM)", "setting": "[9]", "result": 140000, "unit": "M⁻¹ s⁻¹"},
      {"measurement": "Probe Cleavage (pM/s)", "setting": "[9]", "result": 6080, "unit": "pM/s"},
      {"measurement": "kcat/KM (M^-1 s^-1)", "setting": "[10]", "result": "greater than 5×10^2 M^-1 s^-1"},
      {"measurement": "stated: cleaved (kcat/Km, M-1s-1, bar on a log axis)", "setting": "[10]", "result": "PEGL, MMP9 bar ends between 1x10^2 and 1x10^3, just under the 1x10^3 tick"},
      {"measurement": "Probe Cleavage (kcat/KM)", "setting": "[11]", "result": "2.8e+06", "unit": "M⁻¹ s⁻¹"},
      {"measurement": "Probe Cleavage (pM/s)", "setting": "[11]", "result": 115000, "unit": "pM/s"},
      {"measurement": "stated: cleaved (kcat/Km, M-1s-1, bar on a log axis)", "setting": "[12]", "result": "PMGL, MMP9 bar ends between 1x10^3 and 1x10^4, close under 1x10^4"},
      {"measurement": "kcat/KM (M^-1 s^-1)", "setting": "[13]", "result": "greater than 5×10^2 M^-1 s^-1"},
      {"measurement": "stated: cleaved (kcat/Km, M-1s-1, bar on a log axis)", "setting": "[13]", "result": "PYGL, MMP9 bar ends at about the 1x10^4 tick"},
      {"measurement": "Probe Cleavage (kcat/KM)", "setting": "[14]", "result": 870000, "unit": "M⁻¹ s⁻¹"},
      {"measurement": "Probe Cleavage (pM/s)", "setting": "[14]", "result": 25500, "unit": "pM/s"},
      {"measurement": "stated: cleaved (kcat/Km, M-1s-1, bar on a log axis)", "setting": "[15]", "result": "PWGL, MMP9 bar ends just above the 1x10^4 tick"}
    ]}
  ]
}
